Assay results from the nanobody polyreactivity screen of Harvey et al. (2022).

Experiment: yeast display, Sf9 membrane polyspecificity reagent, FACS + sequencing; frameworks hold sequencing errors
How it was run: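 After 36–48 hours of galactose induction, yeast (Saccharomyces cerevisiae BJ5465) displaying a synthetic nanobody library were stained at 4 °C for 1 hour with 10% biotinylated, detergent-solubilized Sf9 membrane reagent. Streptavidin microbeads enriched the stained cells before FACS sorting into low and high (top ~1%) gates on anti-HA and streptavidin fluorescence. Each clone's polyreactivity label reflects its gate of origin.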

Sequence	polyreactivity (PSR sort gate)
QVQLVESGGGLVQAGGSLRFSCAASGSTFSYYTMGWYRQAPGKERELVATISRRGASTYYADSVKGRFTISRDNAKNTVYLQMNSLKPEDTAVYYCAKSYYYGRSATRPEYDYWGQGTQVTVSS	high polyreactivity
QVQLVESGGGLVQAGGSLRFSCAASGSTFYGYVMGWYRQAPGKERELVAAISSSGGRTYYADSVKGRFTIARDYAKNTVYLQMNSLKPEDTAVYYCNTVQRYSTHYDYWGQGTQVTVSS	high polyreactivity
QVQLVESGGGLVQAGGSLRFSCAASGTFVPYAMGWYRQAPGKEMELVARITWRGGSTYYADSVKGRFTISRDNAKNTVYLQMNSLKPEDTAVYYCATVSDNRYYYWGQGSQVTVSS	low polyreactivity
QVQLVESGGGLVQAGGSLRFSCADSGSTFGTYAMGWYRQAPGKERELVAAISWSGGSTYYADSVKGRFTISRDNAKNTVYLQMNSLKPEDTAVYWGQGTQVTVSS	low polyreactivity
QVQLVESGGGLVQAGGSLRFSCGGWGSISEVYAMGWYRPAPGKERELVAAITSGASTNYADSVNGRFTISRDNAKNTVYLQMNSLKPEDTAVYYCAADSDSQWGMDYWGQGTQVTVSS	low polyreactivity
QVQLVESGGGLVQAGGSLRIICAASGRTFATYAMGWYRQAPGKERELVAVISRSGGRTYYADSVKGRFTISRDNAKNTVYLQMNSLKPEDTAVYYCAASYGPSTWTSSYYYWGQGTQVTVSS	high polyreactivity
QVQLVESGGGLVQAGGSLRIICAASGSIFPYYAKGWYRQAPGKERELVARITITGGITYYADSVKGRFSISRDNAKNTVYLQMHSLKPEDTAVYYCAADRDWQYSFRHSVYVYDYDFWGQGTQVTVSS	low polyreactivity
QVQLVESGGGLVQAGGSLRISCAASARIFQVYGMGWYRQAPGKERELVASITYRGGSTYYADSVKGRFTISRDNAKNNVDLQMNSLKPEDTAVYYCAADGAFYASTEMDYWGQGTQVTVSS	low polyreactivity
QVQLVESGGGLVQAGGSLRISCAASGFIFGWYAMGWYRQAPGKERELVAVIRSGGRTNYADSVKGRFTISRDNAKNTVYLQMNSLKPEDTAVYYCNAVGGRGYGGGYWGQGTQVTVSS	high polyreactivity
QVQLVESGGGLVQAGGSLRISCAASGFIFHVYAMGWYRQAPGKERELVAAISSGGSTYYADSVKGRFTISRDNAKNTVYLQMNSLKPEDTAVYYCNVARSRYRYRYDYWGQGTQVTVSS	high polyreactivity
QVQLVESGGGLVQAGGSLRISCAASGFIFKKNAMGWYRQAPGKERELVAAITSSGGSTYYADSVKGRFTISRDNAKNTVYFQMNSLKPEDSAVYYCARDKEQQGYRLFGYWGQGTQVTVSS	high polyreactivity
QVQLVESGGGLVQAGGSLRISCAASGFIFPYNSMGWYREAPGKERELVARISSGGSTNYADSVKGRFTISRDNAKNTVYLQMHSLKPEDTAVYYCNARYRWGWTYLRYGSYDYWGQGTQVTVSS	high polyreactivity
QVQLVESGGGLVQAGGSLRISCAASGFIFQYNTMGWYRQAPGKERELVAVITRTGSTNYADSVKGRFTISRDNAKNTVYLQMNSLKPEDTAVYFCATSFYSRPRKARYYYWGQGTQVTVSS	high polyreactivity
QVQLVESGGGLVQAGGSLRISCAASGFIFSRNAMGWYRQAPGKERELVAAISAGGGSTYYADSVKGRFTISRDNAKNTVYLQMNSLKPEDSAVYSCAAYFRSQFGYWGQGTQVTVSS	high polyreactivity
QVQLVESGGGLVQAGGSLRISCAASGFIFVRYAMGWYRQAPGKEREFVAVISRRGGSTHYADSVKGRFTISRDNAKNTVYLQMNSLKPEDTAVYYCAAVRRVYSQNDYWGQGSQVTVSS	high polyreactivity
QVQLVESGGGLVQAGGSLRISCAASGFILYYYAMGWYRQAPGKERELVAAISRNGGRTYYAVSVKGRFTISRDNAKNTVYLQMNSLKPEDTAVYYCNKGVSRTLSSAYDYWGQVTQVTVSS	high polyreactivity
QVQLVESGGGLVQAGGSLRISCAASGFISYYYAMGWYRQAPGKERELVAAITKSGGSTYYADSVKGRFTISRDNAKNTVYLQMNSLKPDDTAVYYCAADRSTRNSTSRLYGYWGQGTQVTVSS	low polyreactivity
QVQLVESGGGLVQAGGSLRISCAASGFSFRYYAMGWYRQAPGKERELVAAISGSGGSTYYADSVKGRFTISRDNAKNTVYLQMNSLKPEDTAVYYCARYYTYREYDYWGQATQVTVSS	high polyreactivity
QVQLVESGGGLVQAGGSLRISCAASGFTFPYYAMGWYRQAPGKERELVAAISYNGGSTYYADSVKGRFTISRDNAKNTVYLQMNSLKPEDTAVYYCNAVYYDSGVVGYYYWGQGTQVTVSS	high polyreactivity
QVQLVESGGGLVQAGGSLRISCAASGFTFRKYTMGWYRQAPGKERELVAAISRRGGSTYYADSVKGRFTISRDNAKNTVYFQMNSLKPEVTAVYYCATDHIPSVGVDYWGQGTQVTVSS	high polyreactivity
QVQLVESGGGLVQAGGSLRISCAASGFTFRYYALGWYRQAPGKERELVAAILSSGGSTYYADSVKGRFTISRDNAKNTVYLQINSLKPVDTAVYYCNKVWDRRYDYWGQGTQVTVSS	high polyreactivity
QVQLVESGGGLVQAGGSLRISCAASGFTFRYYAMGWYRQAPGKERELVATISTGSGVSTYYADSVKGRFTISRDNAKNTVYLQMNSLKPEDTAVYYCAADYDSYYAYRTPYGYWGQGTQVTVSS	low polyreactivity

Sequence	polyreactivity (PSR sort gate)
QVQLVESGGGLVQAGGSLRISCAASGFTFWRYALGWYRQAPGKERELVAAISTGGSTNYADSVKGRFTISRDNAKNTVYLQMNSLKPEDTAVYYCNRQWNFTPYRRNYWGQGTQVTVSS	high polyreactivity
QVQLVESGGGLVQAGGSLRISCAASGFTFYRYAMGWYRPAPGKERELVASIRRSDGSTSYADSVKGRFTISRDNAKNTFYLQMNSLKPEDTAVYYCAARYAGSSRYDYWGQGTQVTVSS	high polyreactivity
QVQLVESGGGLVQAGGSLRISCAASGFTFYYNAMGCYRQAPVKERELVAIRFRGGNTYYAYSVKGRFTISRDNAKITVYLQMNSLKPEDTAVYYCTADDRGSTYVYFDYWGQGTQVTVSS	low polyreactivity
QVQLVESGGGLVQAGGSLRISCAASGGTFHRYAMGWYRQAPGKERELVAAISGSGASTYYADSVKGRFTISRDNAKNTVYLQMNSLKPEDTAVYYCNAYYYPYWYRYYYWGQGTQVTVSS	high polyreactivity
QVQLVESGGGLVQAGGSLRISCAASGIILSDNAMGWYRQAPGKEREFVAAITGSGGSTYYADSVKGRFTISRDNAKNTVYLQMNSLKPEDTAVYYCAADGPYGYYYGHYGYWGQGTQVTVSS	low polyreactivity
QVQLVESGGGLVQAGGSLRISCAASGITFRWYAMGWYRQAPGKERELVAGINSSGGSTNYADSVKGRFTISRDNAKNTVYLQMNSLKPADTAVYYCNADLRSEYDYWGQGTQETVSS	low polyreactivity
QVQLVESGGGLVQAGGSLRISCAASGITFTGYAMGWYRQAPGKEKELVAAIRGGGNTYYADSVKGRFTISRDNAKNTVYLQMNSLKPEDTAVYYCATSYASYTYWYDYWGQGTQVTVSS	low polyreactivity
QVQLVESGGGLVQAGGSLRISCAASGITITSYAMGWYRQAPGKEWELVASIDSDDSTNYADSVKGRFTISRDNAKNTVYFQMNSLKPEDNAVYYSAATSKPLGLKTYGYWGQGTQVTVSS	low polyreactivity
QVQLVESGGGLVQAGGSLRISCAASGITLYDNVMGWYRQAPGKERELVAAISSSGTTKYYADSVKGRFTMSRDHANNTVYLQMNSLKPEDTAGSYCAADGITWYAIAYYYWGQGTQVTVSS	high polyreactivity
QVQLVESGGGLVQAGGSLRISCAASGITLYFYAMGWYRQAPGKERELVAGISGSVGSTHYADSVKGRFSISRDNAKNTVYLQMNSLKPEDTAVYYCAARALTWSRVPRYNYWGQGTQVTVSS	high polyreactivity
QVQLVESGGGLVQAGGSLRISCAASGLTFEVYAMGWYRQAPGIERELVATITYSGGITYYADSVKGRFTISRDNAKNTVYLQMNSLKPEDTAVYYRIGFGGDYDYWGQGTQVTVSS	low polyreactivity
QVQLVESGGGLVQAGGSLRISCAASGLTFGKYAMGWYRQEPGKERELVAAISWSVTSTYYADSVKGRFTISRDNAKNTVYLQMNSLKPEDTAVYYCAAEIIKLAYRVAYYYWGQGTQVTVSS	high polyreactivity
QVQLVESGGGLVQAGGSLRISCAASGLTSVTYAMGWYRQAPGKERELVAAITSRAGSTYYADSVKGRFTISRDNAKNTVYLQMNSLKPEDTAVYYCAKDIIRKVYAGYVGRYDYWGQGTQVTVSS	low polyreactivity
QVQLVESGGGLVQAGGSLRISCAASGNIFGIYTMGWYRQAPGKEREFFAVISLSGTSTYYADSVKGRFTISRDNAKNTVYLQMNSLKPEDTAVYYCNARTPHNKGRRRAYDYWGLGTQVTVSS	high polyreactivity
QVQLVESGGGLVQAGGSLRISCAASGNIFPYYAMGWYRQAPGKERELVATITRGGRTNYADSVKGRFTISRDNAKNTVYLQMNSLKPEDTAVYYCASYSYTLTYRFDYWGQGTQVTVSS	low polyreactivity
QVQLVESGGGLVQAGGSLRISCAASGNIFSVNAMGWYRQAPGKEREFVAAISGSGGSTYYADSVKGRFTISRDNAKNTVYLQMNSLKPEDTAVYYCAKRWYHPSSLPRYVFRGVDYWGQGTQVTVSS	high polyreactivity
QVQLVESGGGLVQAGGSLRISCAASGRIFANYAMGWYRQAPGKEMELVAAITTNGGGTYYADSVKVRFTISRDNAKNTVYLQMKSLIPEDTAVYYCIAVKQRSSIFDYWGQGTQLTVSS	low polyreactivity
QVQLVESGGGLVQAGGSLRISCAASGRIFNINAMGWYRPAPGKERELVAAITWRSGSTYYADSVKGRFTISRDNAKNTVYLHMNSLKPEDTAVYYCAADFSQTRRPIRFYYWGQGSQVTVSS	high polyreactivity
QVQLVESGGGLVQAGGSLRISCAASGRIFSFYAMGWYRQAPGKERELVAAISYSDGSTYYADSVKGRFTISRDNAKNTVYLQMNSLKPEDTAVYYCAKYGYDHDYNYWGQGTQVTVSS	low polyreactivity
QVQLVESGGGLVQAGGSLRISCAASGRIFSGNAMGWYRQAPGKERELVAAISSGGSTYYADSVKGRFTISRYNAMNTVFLQMNILKPEDTAVYYCKKSRGRKWRGNYSVVKLLMGYWGQGSQVTVSS	low polyreactivity
QVQLVESGGGLVQAGGSLRISCAASGRIFSYNDMGWYRPAPGKERELVAAITGGGSTNYADSVKGRFTISRDNAKNTVYLQMNSLKPEDTAVYYCAARSWSDKYWGQGTQVTVSS	high polyreactivity
